Laboratory results as given in publication PMC6458971.

Biological target: AviTagged clade B YU-2 gp140 trimers (HIV-1 clade B, strain YU-2 | not stated)
Assay: SEC

Question: Which stoichiometry N does the source give for “AviTagged clade B YU-2 gp140 trimers (domain or fragment)” here?
Answer: 3
